T1: SSB-2ΔSB (recombinant murine SSB-2 SPRY domain, residues 12-224) (mouse, UniProt O88838 12-224)
T1 construct: 226 residues in total; expressed as GST fusion in E. coli, GST cleaved off with thrombin; 15N-labelled for NMR; coupled to NHS-Sepharose for pull-downs; also called SPSB2
T1 sequence: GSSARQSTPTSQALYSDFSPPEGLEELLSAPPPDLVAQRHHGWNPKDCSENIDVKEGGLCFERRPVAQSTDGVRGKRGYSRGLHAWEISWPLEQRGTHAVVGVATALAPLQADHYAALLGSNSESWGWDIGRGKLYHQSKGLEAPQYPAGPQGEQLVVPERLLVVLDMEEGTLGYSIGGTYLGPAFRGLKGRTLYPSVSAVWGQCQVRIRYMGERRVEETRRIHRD


Target: T1, SSB-2ΔSB (recombinant murine SSB-2 SPRY …)
Experiment: ITC, 25 C, peptide injected into SSB-2ΔSB
Protocol: FIG. 3. Typical ITC raw data and titration curves for SSB-2 and iNOS peptide interactions. Titration curves were fitted using the “One Set of Sites” model in MicroCal Origin.
Wild-type and mutant iNOS peptides (Table 2), corresponding to Lys19-Thr31 of mouse iNOS, were synthesized by GL Biochem (Shanghai) Ltd. These peptides were N-terminal acetylated and C-terminal amidated. All ITC measurements were carried out at 25° C. using a Microcal omega VP-ITC (Microcal Inc., Northampton, Mass.). SSB-2ΔSB was dialysed against buffer (100 mM TrisHCl, 150 mM NaCl, pH 8.0), and wild-type and mutant iNOS N-terminal peptides were prepared in the same buffer from 5 mM stocks. Solutions of 5 to 10 μM SSB-2ΔSB in the cell were titrated by injection of a total of 290 μL of 50-200 μM of iNOS peptides. Data analysis was performed using the evaluation software, MicroCal Origin version 5.0. All curves were fitted using the nonlinear least-squares fitter and the “One Set of Sites” model.

Binder | Kd
Ac-KEAKDINNNVKKT-NH2 [iNOS N-terminal peptide II, Ac-KEAKDINNNVKKT-NH2] | 14 nM
Ac-KEAADINNNVKKT-NH2 [iNOS N-terminal peptide IV, Ac-KEAADINNNVKKT-NH2] | 65.4 nM
Ac-KEEKDINNNAKAT-NH2 [iNOS N-terminal peptide XIV, Ac-KEEKDINNNAKAT-NH2] | 180 nM
Ac-KEEKDIANNVKKT-NH2 [iNOS N-terminal peptide VII, Ac-KEEKDIANNVKKT-NH2] | 17200 nM
Ac-KEEKDIQNNVKKT-NH2 [iNOS N-terminal peptide VIII, Ac-KEEKDIQNNVKKT-NH2] | 40500 nM
Ac-KEEKAINNNVKKT-NH2 [iNOS N-terminal peptide V, Ac-KEEKAINNNVKKT-NH2] | 21600 nM
Ac-KEEADINNNVKKT-NH2 [iNOS N-terminal peptide III, Ac-KEEADINNNVKKT-NH2] | 127 nM
Ac-KEEKDANNNVKKT-NH2 [iNOS N-terminal peptide VI, Ac-KEEKDANNNVKKT-NH2] | 23.5 nM
Ac-KEEKDINANVKKT-NH2 [iNOS N-terminal peptide IX, Ac-KEEKDINANVKKT-NH2] | 826 nM

— patent US20120308570A1, “METHODS FOR TREATING DISEASES” (priority 2009, published 2012)
